Reference: patent publication US20240009240A1 (published 2024)

How the values were obtained:
[1] = target: T1, EGFR L858R peptide on HLA-A*11:01 (human); experiment: multimer staining
T1 peptide: KITDFGRAK

[2] = target: … (SEQ ID NO:71) presented on HLA-A*1101 on HLA-A*1101-transduced 293 target cells (human); experiment: cell-based or functional assay
[3] = target: T1, EGFR L858R peptide on HLA-A*11:01; experiment: killing

B1: EGFRA11 TCRA11-7-8 (TCR, V domains shown)
Valpha: RKEVEQDPGPFNVPEGATVAFNCTYSNSASQSFFWYRQDCRKEPKLLMSVYSSGNEDGRFTAQLNRASQYISLLIRDSKLSDSATYLCVVIGGGADGLTFGKGTHLIIQP
Vbeta: GVIQSPRHEVTEMGQEVTLRCKPISGHDYLFWYRQTMMRGLELLIYFNNNVPIDDSGMPEDRFSAKMPNASFSTLKIQPSEPRDSAVYFCASRNGPEAFFGQGTRLTVV
[1]
  binding result: recognises

B2: EGFRA11 TCRA11-7-18 (TCR, V domains shown)
Valpha: RKEVEQDPGPFNVPEGATVAFNCTYSNSASQSFFWYRQDCRKEPKLLMSVYSSGNEDGRFTAQLNRASQYISLLIRDSKLSDSATYLCVVIGGGADGLTFGKGTHLIIQP
Vbeta: EPEVTQTPSHQVTQMGQEVILRCVPISNHLYFYWYRQILGQKVEFLVSFYNNEISEKSEIFDDQFSVERPDGSNFTLKIRSTKLEDSAMYFCASSGQGDLLYGYTFGSGTRLTVV
[1]
  binding result: recognises

B3: EGFRA11 TCRA11-7-12 (TCR, V domains shown)
Valpha: RKEVEQDPGPFNVPEGATVAFNCTYSNSASQSFFWYRQDCRKEPKLLMSVYSSGNEDGRFTAQLNRASQYISLLIRDSKLSDSATYLCVVIGGGADGLTFGKGTHLIIQP
Vbeta: GVTQSPTHLIKTRGQQVTLRCSSQSGHNTVSWYQQALGQGPQFIFQYYREEENGRGNFPPRFSGLQFPNYSSELNVNALELDDSALYLCASSVGGDTEAFFGQGTRLTVV
[1]
  binding result: recognises

B4: #1. EGFRA11 TCRA11-6; TRAV14DV4*02 J8*01/TRBV12-4*01 C1 J1-1*01 (TCR)
TCR alpha: QKITQTQPGMFVQEKEAVTLDCTYDTSDQSYGLFWYKQPSSGEMIFLIYQGSYDEQNATEGRYSLNFQKARKSANLVISASQLGDSAMYFCAMNTGFQKLVFGTGTRLLVSPNIQNPDPAVYQLRDSKSSDKSVCLFTDFDSQTNVSQSKDSDVYITDNAVLDMRSMDFKSNSAVAWSNKSDFACANAFNNSIIPEDTFFPSPESSCDVKLVEKSFETDTNLNFQNLSVIGFRILLLKVAGFNLLMTLRLWSSRAKRSGSGATNFSLLKQAGDVEENPGP
TCR beta: GVIQSPRHEVTEMGQEVTLRCKPISGHDYLFWYRQTMMRGLELLIYFNNNVPIDDSGMPEDRFSAKMPNASFSTLKIQPSEPRDSAVYFCASRNGPEAFFGQGTRLTVVEDLNKVFPPEVAVFEPSEAEISHTQKATLVCLATGFFPDHVELSWWVNGKEVHSGVCTDPQPLKEQPALNDSRYCLSSRLRVSATFWQNPRNHFRCQVQFYGLSENDEWTQDRAKPVTQIVSAEAWGRADCGFTSVSYQQGVLSATILYEILLGKATLYAVLVSALVLMAMVKRKDF
[2]
  specific lysis of 293A11 cells pulsed with different amounts of EGFR-A11 peptide, T cells expressing TCR6 construct at a 20:1 ratio (Cr51 release): 20 ng/mL

B5: EGFRA11 TCRA11-6 (TCR, V domains shown)
Valpha: QKITQTQPGMFVQEKEAVTLDCTYDTSDQSYGLFWYKQPSSGEMIFLIYQGSYDEQNATEGRYSLNFQKARKSANLVISASQLGDSAMYFCAMNTGFQKLVFGTGTRLLVSP
Vbeta: DAGVIQSPRHEVTEMGQEVTLRCKPISGHDYLFWYRQTMMRGLELLIYFNNNVPIDDSGMPEDRFSAKMPNASFSTLKIQPSEPRDSAVYFCASRNGPEAFFGQGTRLTVV
[3]
  binding result: recognises
